From US11441131B2, “Heparosan synthases and use thereof for saccharide synthesis” (The Regents of the University of California, priority 2019, dated 2022)

Legend:
[1] = Relative activity comparison with acceptor GlcNAcαProNHFmoc and UDP-GlcA; type: biochemical; conditions: enzyme 1.5 mg/mL; percentage conversion, 30 min, HPLC
Protocol: (§1) Reactions were stopped by heating reaction mixtures at 70° C. for 10 min, followed by incubation on ice for 30 min and centrifugation at 11,337 g for 15 min.

[2] = Behaviour during dialysis; type: physicochemical
[3] = Survival of lyophilization assay; type: physicochemical; conditions: dialysis, rehydration, compared with freshly prepared enzyme
Protocol: Survival of lyophilization assays. […] The resulting powders were stored at −80° C. for 3 days. For activity assays, the dried powder was dissolved in water. […] Chromatographic separation and detection were achieved similarly as described above for the kinetics studies except that an isocratic flow (0.3 mL/min) of a mixed solvent (32% acetonitrile/68% water with 0.1% TFA) was used for elution.

[4] = Effect of UDP concentration on reverse glycosylation activity; type: biochemical; conditions: O6 1 mM, enzyme 15 μM
Protocol: Reactions were stopped by heating reaction mixtures at 70° C. for 10 min followed by incubation on ice for 30 min, and centrifugation at 11,337 g for 15 min. Supernatants were analyzed using an Infinity 1290 II HPLC equipped with 1260 Infinity II Diode Array Detector WR (monitored at 254 nm, Agilent Technologies, CA). An AdvanceBio Glycan Mapping column (1.8 μm particle, 2.1×150 mm, Agilent Technologies, CA) was used with a gradient (13 min) of 0.5 mL/min for 90% to 70% acetonitrile and a solution of water with 0.1% TFA for analysis.

[5] = Relative activity comparison with acceptor GlcAβProNHFmoc (O1) and UDP-GlcNAc; type: biochemical; conditions: for GlcNAcα1-4GlcAβProNHFmoc (%): percentage conversion, 30 min, HPLC
Protocol: as §1

[6] = Protein expression and purification; set-up: species or system E. coli BL21 (DE3); conditions: per L culture
Protocol: Protein expression and purification. The plasmid-bearing E. coli BL21(DE3) cells were cultured in 1 L of LB-rich media (10 g/L tryptone, 5 g/L yeast extract and 10 g/L NaCl) supplemented with ampicillin (100 μg/mL). Expression of the target protein was achieved by inducing the E. coli culture with 0.1 mM of isopropyl-1-thio-β-D-galactopyranoside (IPTG) when OD600 nm reached 0.8-1.0, followed by incubating at 20° C. for 20 h with shaking at 250 rpm in a C25KC incubator shaker (New Brunswick Scientific, Edison, N.J.). Histidine-tagged target proteins were purified from cell lysate. To obtain the cell lysate, cell pellet harvested by centrifugation at 2,795 g for 50 min was resuspended (25 mL/L cell culture) in lysis buffer (Tris-HCl, 100 mM, pH 8.0 with 0.1% Triton X-100). Sonication protocol was 2 s (sonication)/3 s (rest) for a total of 6 min on ice. Lysed cells were centrifuged at 5,000 g for 50 min and the supernatant (lysate) was collected. Purification of histidine-tagged proteins from the lysate was achieved using a Ni′-resin column. The column was pre-equilibrated with 10 column volumes of binding buffer (5 mM imidazole, 0.5 M NaCl, 50 mM Tris-HCl, pH 7.5). The lysate was then loaded, and the column was washed with 10 column volumes of binding buffer and 10 column volumes of washing buffer (16 mM imidazole, 0.5 M NaCl, 50 mM Tris-HCl, pH 7.5). The target protein was eluted with Tris-HCl buffer (50 mM, pH 7.5) containing imidazole (200 mM) and NaCl (0.5 M). The fractions containing the purified enzymes were collected, and stored at 4° C.

[7] = Coupled-enzyme reverse glycosylation assay with NmLgtA and LacβMU; type: biochemical; conditions: His6-Δ80PmHS2 +, UDP-GlcNAc −
Protocol: Coupled-enzyme reverse glycosylation assay. […] Reactions were stopped by heating reaction mixtures at 70° C. for 10 min followed by incubation on ice for 30 min and centrifuged at 11,337 g for 15 min.

Isoelectric point (pI) = type: physicochemical
Thermostability assay = type: physicochemical; conditions: 30 min incubation at 25-50 °C
Protocol: Thermostability assays. […] UHPLC detection was carried out similarly as described above for kinetics studies.

B1: His6-Δ80PmHS2: N-terminal His6-tagged and N-terminal 80 amino acid-truncated PmHS2 (SEQ ID NO:3) (protein)
chain: MGSSHHHHHHSFEKIYTYNQALEAKLEKDKQTTSITDLYNEVAKSDLGLVKETNSANPLVSIIMTSHNTAQFIEASINSLLLQTYKNIEIIIVDDDSSDNTFEIASRIANTTSKVRVFRLNSNLGTYFAKNTGILKSKGDIIFFQDSDDVCHHERIERCVNILLANKETIAVRCAYSRLAPETQHIIKVNNMDYRLGFITLGMHRKVFQEIGFFNCTTKGSDDEFFHRIAKYYGKEKIKNLLLPLYYNTMRENSLFTDMVEWIDNHNIIQKMSDTRQHYATLFQAMHNETASHDFKNLFQFPRIYDALPVPQEMSKLSNPKIPVYINICSIPSRIAQLQRIIGILKNQCDHFHIYLDGYVEIPDFIKNLGNKATVVHCKDKDNSIRDNGKFILLEELIEKNQDGYYITCDDDIIYPSDYINTMIKKLNEYDDKAVIGLHGILFPSRMTKYFSADRLVYSFYKPLEKDKAVNVLGTGTVSFRVSLFNQFSLSDFTHSGMADIYFSLLCKKNNILQICISRPANWLTEDNRDSETLYHQYRDNDEQQTQLIMENGPWGYSSIYPLVKNHPKFTDLIPCLPFYFL
modifications: N-terminal His6 tag
GlcAβ1-4GlcNAcαProNHFmoc (%) [1]: 9.8 ± 0.4%
behaviour during dialysis [2]: remained soluble
activity after lyophilization [3]: without loss of activity
O6 (%) ([4]; UDP 0 (nM)): 100%
O4 (%) ([4]; UDP 1 (nM)): 6.7%
O5 (%) ([4]; UDP 1 (nM)): 2.6%
O6 (%) ([4]; UDP 1 (nM)): 81.6%
O8 (%) ([4]; UDP 1 (nM)): 7.9%
O10 (%) ([4]; UDP 1 (nM)): 0.8%
O1 (%) ([4]; UDP 5 (nM)): 3.4%
O2 (%) ([4]; UDP 5 (nM)): 1.5%
O3 (%) ([4]; UDP 5 (nM)): 0.6%
O4 (%) ([4]; UDP 5 (nM)): 16.9%
O5 (%) ([4]; UDP 5 (nM)): 4.2%
O6 (%) ([4]; UDP 5 (nM)): 58.0%
O7 (%) ([4]; UDP 5 (nM)): 0.4%
O8 (%) ([4]; UDP 5 (nM)): 12.8%
O10 (%) ([4]; UDP 5 (nM)): 1.9%
O12 (%) ([4]; UDP 5 (nM)): 0.2%
O1 (%) ([4]; UDP 10 (nM)): 3.4%
O2 (%) ([4]; UDP 10 (nM)): 7.8%
O3 (%) ([4]; UDP 10 (nM)): 1.5%
O4 (%) ([4]; UDP 10 (nM)): 18.9%
O5 (%) ([4]; UDP 10 (nM)): 3.8%
O6 (%) ([4]; UDP 10 (nM)): 38.0%
O7 (%) ([4]; UDP 10 (nM)): 1.8%
O8 (%) ([4]; UDP 10 (nM)): 18.6%
O9 (%) ([4]; UDP 10 (nM)): 0.7%
O10 (%) ([4]; UDP 10 (nM)): 4.2%
O12 (%) ([4]; UDP 10 (nM)): 1.1%
efficiency of GlcAβProNHFmoc (O1) over GlcNAcαProNHFmoc as substrate in disaccharide production [5]: 130 fold
GlcNAcα1-4GlcAβProNHFmoc (%) ([5]; enzyme 0.06 mg/mL): 50.8 ± 6.0%
GlcNAcα1-4GlcAβProNHFmoc (%) ([5]; enzyme 1.5 mg/mL): 100%
expression level [6]: 60 to 80 mg/L
GlcNAcβ1-3LacβMU (%) ([7]; Reaction 1: NmLgtA +, UDP +): 9.7 ± 0.6%
LacβMU (%) ([7]; Reaction 1: NmLgtA +, UDP +): 90.3 ± 0.6%
O2 (%) ([7]; Reaction 1: NmLgtA +, UDP +): 9.3%
O3 (%) ([7]; Reaction 1: NmLgtA +, UDP +): 1.0%
O4 (%) ([7]; Reaction 1: NmLgtA +, UDP +): 16.2%
O5 (%) ([7]; Reaction 1: NmLgtA +, UDP +): 4.4%
O6 (%) ([7]; Reaction 1: NmLgtA +, UDP +): 36.2%
O7 (%) ([7]; Reaction 1: NmLgtA +, UDP +): 3.0%
O8 (%) ([7]; Reaction 1: NmLgtA +, UDP +): 20.4%
O9 (%) ([7]; Reaction 1: NmLgtA +, UDP +): 0.6%
O10 (%) ([7]; Reaction 1: NmLgtA +, UDP +): 7.3%
O12 (%) ([7]; Reaction 1: NmLgtA +, UDP +): 1.7%
LacβMU (%) ([7]; Reaction 2: NmLgtA −, UDP +): 100%
O2 (%) ([7]; Reaction 2: NmLgtA −, UDP +): 11.4%
O3 (%) ([7]; Reaction 2: NmLgtA −, UDP +): 0.7%
O4 (%) ([7]; Reaction 2: NmLgtA −, UDP +): 23.7%
O5 (%) ([7]; Reaction 2: NmLgtA −, UDP +): 5.1%
O6 (%) ([7]; Reaction 2: NmLgtA −, UDP +): 35.1%
O7 (%) ([7]; Reaction 2: NmLgtA −, UDP +): 1.2%
O8 (%) ([7]; Reaction 2: NmLgtA −, UDP +): 15.8%
O9 (%) ([7]; Reaction 2: NmLgtA −, UDP +): 0.5%
O10 (%) ([7]; Reaction 2: NmLgtA −, UDP +): 5.1%
O12 (%) ([7]; Reaction 2: NmLgtA −, UDP +): 1.2%
LacβMU (%) ([7]; Reaction 4: NmLgtA +, UDP −): 100%
O6 (%) ([7]; Reaction 4: NmLgtA +, UDP −): 100%
pI (Isoelectric point (pI)): 6.61
increase of Tso (temperature at which the enzyme retains 50% of maximum activity) compared to WT (Thermostability assay): approximately 7 °C
